Consider 14 molecules from patent US20200277375A1 (ULTRAHUMAN FOUR, published 2020).

For assay [1], the target named is T1, human CD47 on cells (human CD47-transfected CHO-K1; HL60) (human, UniProt Q08722 19-323).
T1 construct: whole, on cells; also called human CD47+ cells; human CD47+HL60 cells
Put plainly: flow cytometry, human CD47-transfected CHO-K1, FIG. 6. The procedure: (§1) FIG. 6A-FIG. 6C. Flow cytometric binding to human and cyno CD47+CHO-K1 cells. Commercial anti-CD47 antibody MS1991, human IgG1 (“I IgG1”) and IgG4 (“I IgG4”) Isotype controls, lead library-derived IgGs in both IgG1null (“IgG1N”) and IgG4(S228P) formats were examined for specific binding on cyno-transfected CHO-K1 cells (FIG. 6A), human-transfected CHO-K1 cells (FIG. 6B), and wild type (wt, i.e. untransfected) CHO-K1 cells (FIG. 6C). IgGs were tested at concentrations ranging from 24-100,000 ng/ml. Concentration-dependent binding was observed against both human and cyno cell lines for all CD47-specific antibodies but not Isotype controls.
(§2) Antibodies to CD47 were analysed for concentration-dependent binding at the cell surface via flow cytometry. CHO-K1 cells were stably transfected with either human, mouse or cyno CD47 full-length cDNAs. Anti-CD47 IgGs mVH/mVL, VH-A1/VL-B1, A-D5, G-B6, F-E7 and D-H3, and an isotype control IgG1 were then all tested in IgG1null and IgG4(S228P) formats, alongside a commercial mouse anti-human CD47 monoclonal MS1991, over a concentration range of 100,000-24 ng/ml for binding to human, cyno or wild type control (‘wt’, i.e. untransfected) CHO-K1.

Assay [2] deals with T2, cynomolgus monkey CD47 on transfected CHO-K1 cells (cynomolgus monkey, UniProt A0A5F8AK49 19-323 (rhesus entry)).
T2 construct: whole, on cells; also called cyno CD47+ cells
Nature of the assay: flow cytometry, cyno CD47-transfected CHO-K1, FIG. 6. The method, then: as §1, §2
In general terms: A flow cytometer gives signals particle by particle.

The target of assay [3] is T3, mouse CD47-Fc (mouse, UniProt Q61735 19-140, limits assumed).
T3 construct: Recombinant CD47-Fc; also called mCD47-Fc; mCD37-Fc [sic]; not shown: Fc part
T3 sequence (looked up): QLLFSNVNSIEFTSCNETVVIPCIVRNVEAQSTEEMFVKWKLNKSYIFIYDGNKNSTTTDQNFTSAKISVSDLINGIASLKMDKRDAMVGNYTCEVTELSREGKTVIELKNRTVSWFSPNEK
Nature of the assay: direct specificity ELISA, IgG 1 µg/ml, FIG. 5. The text has this: (§3) FIG. 5A-FIG. 5G. Binding specificity analyses for prioritized lead clones. Off-target homologue binding risk for mVH/mVL in IgG1 (FIG. 5A) and IgG1null (FIG. 5B) format and library-derived leads A-D5 (FIG. 5C), VH-A1/VL-B1 (FIG. 5D), F-E7 (FIG. 5E), D-H3 (FIG. 5F), and G-B6 (FIG. 5G) in IgG1null format was examined by direct ELISA on CD47-Fc orthologs and a panel of 14 human immunoglobulin superfamily proteins as labelled on each X-axis (“B” refers to blank). Binding to human, cyno and murine CD47-Fcs (h/c/mCD47-Fc) was performed at an IgG concentration of 1 μg/ml. Binding to all other proteins was performed at an IgG concentration of 10 μg/ml.
(§4) To ensure that that lead clones had not suffered from loss of target specificity during the mutation and reselection process; lead and control IgG1 clones were tested for binding to a panel of 14 purified human proteins from the immunoglobulin superfamily (FIG. 5).
For orientation: ELISA stands for enzyme-linked immunosorbent assay.

In assay [4] the target is T4, cynomolgus monkey CD47-Fc (cynomolgus monkey, UniProt A0A2K5X523 19-139).
T4 construct: Recombinant CD47-Fc; also called cyno CD47-Fc; cCD47-Fc; not shown: Fc part
Nature of the assay: direct specificity ELISA, IgG 1 µg/ml, FIG. 5.
Excerpt: as §3, §4

Assay [5] has as its target T5, human CD47-Fc (human, UniProt Q08722 19-139).
T5 construct: Recombinant CD47-Fc; also called hCD47-Fc; not shown: Fc part
Nature of the assay: direct specificity ELISA, IgG 1 µg/ml, FIG. 5.
Excerpt: as §3, §4

In assay [6] the target is T3, mouse CD47-Fc. Put plainly: direct specificity ELISA, IgG 10 µg/ml, FIG. 13.
For assay [7], the target named is T4, cynomolgus monkey CD47-Fc. Put plainly: direct specificity ELISA, IgG 10 µg/ml, FIG. 13.
The target in assay [8] is T5, human CD47-Fc. Put plainly: direct specificity ELISA, IgG 10 µg/ml, FIG. 13.
For assay [9], the target named is T5, human CD47-Fc. Nature of the assay: direct titration ELISA, FIG. 9A. The procedure:
(§5) FIG. 9A-FIG. 9C. Direct titration ELISA for designer IgGs binding to human, mouse and cyno CD47-Fc proteins. Chimeric anti-CD47 (mVH/mVL), designer A-D5-derived clones in human IgG1null format were titrated (in μg/ml) in a direct binding ELISA against human (FIG. 9A), cyno (FIG. 9B) and mouse (FIG. 9C) CD47-Fc proteins. […] In the figure legend, “IgG1NI” refers to IgG1 null isotype.
(§6) To coat Greiner Bio-One High bind ELISA plates, target proteins were diluted to 1 μg/ml in carbonate buffer and added at 100 μl per well, at 4° C., o/n. Coated plates were washed 3× with PBS pH7.4, blocked with 1% BSA in PBS (380 μl/well) for 1 hr at RT, then washed 3× with PBS-Tween 20 (PBST). CD47 antibodies (100 μl/well; diluted in PBST) were then added and then incubated 1 hr at RT. Plates were then washed 3× with PBST and goat anti-human kappa chain-HRP added (100 μl/well) at RT, for 1 hr. Plates were then washed 3× with PBST and twice with PBS before the addition of 100 μl TMB per well. Reactions were stopped by adding 100 μl 2M H₂SO₄/well and OD was read on a plate reader at 450 nm.

Assay [10] addresses T3, mouse CD47-Fc. Put plainly: direct titration ELISA, FIG. 9C. The method, then: as §5, §6
In assay [11] the target is T3, mouse CD47-Fc. Nature of the assay: direct titration ELISA, FIG. 3. The procedure: (§7) FIG. 3A-FIG. 3H. Direct titration ELISA for IgG binding to human, mouse and cyno CD47-Fc proteins. Chimeric anti-CD47 (mVH/mVL), library-derived clones in human IgG1 null format were titrated (in μg/ml) in a direct binding ELISA against human, mouse and cyno CD47-Fc proteins (FIG. 3A-FIG. 3H). […] Clone TTP lost almost all binding function.
as §6

The target of assay [12] is T5, human CD47-Fc. Put plainly: direct titration ELISA, FIG. 3. The method, then:
as §7, §6

Assay [13] concerns the target T5, human CD47-Fc. Put plainly: direct titration ELISA, FIG. 11A. The method, then: (§8) FIG. 11A-FIG. 11C. Direct titration ELISA for A-D5.4-derived designer IgGs binding to human, mouse and cyno CD47-Fc proteins. Chimeric anti-CD47 (mVH/mVL), designer A-D5.4-derived clones in human IgG1 null format were titrated (in μg/ml) in a direct binding ELISA against human (FIG. 11A), cyno (FIG. 11B) and mouse (FIG. 11C) CD47-Fc proteins. […] In the figure legends, “IgG1NI” refers to IgG1 null isotype.
as §6

For assay [14], the target named is T3, mouse CD47-Fc. Put plainly: direct titration ELISA, FIG. 11C. The procedure:
as §8, §6

Numbering of substitutions follows the chain as printed. In names and notes the source's numbering stands. Some results are limits rather than exact numbers.

B1: G-B6 in human IgG1null format (antibody, V domains shown)
VH: EVQLVQSGAEVKKPGESLKISCKGSGYSFTNYYIFWVRQMPGKGLEWIGDINPVNGDTNFSPSFQGQVTISADKSISTAYLQWSSLKASDTAMYYCARGGYTMDKWGQGTLVTVSS
VL: DIVMTQSPLSLPVTPGEPASISCRSSQSLVHSNGYTYLHWYLQKPGQSPQLLIYKGSYRASGVPDRFSGSGSGTDFTLKISRVEAEDVGVYYCSQNTQTPRTFGQGTKVEIK
notes: IgG1null (L234A/L235A/G237A), kappa
For the molecule B1, the “maximum MFI, fold over untransfected CHO-K1” value (from here on “maximum MFI, fold”) in assay [1] and in assay [2] was greater than 10 fold each time. The OD450 nm in the assay with mouse CD47-Fc [3] was greater than 1.25 OD450 nm; in assay [4] it was greater than 2 OD450 nm; in the assay with human CD47-Fc [5], greater than 2 OD450 nm.

B2: A-D5.4 in human IgG1null format (antibody, V domains shown)
VH: B1 VH with S28T, I48M, D50I, N55D, F60Y, S61N, K105R
VL: B1 VL with V30L, T36N, G56V, Y58N, A60L, S94F, Q98H
notes: Designer clone from A-D5; IgG1null; also called A-D.4
As to B2, the OD450 nm (with mouse CD47-Fc [6]; in [7]; with human CD47-Fc [8]) was greater than 2 OD450 nm throughout.

B3: A-D5 in human IgG1null format (antibody, V domains shown)
VH: B1 VH with S28T, I48M, D50I, N55D, F60Y, S61N, K105R
VL: B1 VL with V30L, G56V, Y58N, A60L, S94F, Q98H
notes: IgG1null (IgG1 L234A/L235A/G237A), kappa; also called IgG1 A-D5N
For B3, the “maximum MFI, fold” value in assay [1] and in assay [2] was greater than 10 fold each time. In addition, the OD450 nm is greater than 1.25 OD450 nm with mouse CD47-Fc [3], greater than 2 OD450 nm in assay [4] and greater than 2 OD450 nm with human CD47-Fc [5].

B4: A-D5.8 in human IgG1null format (antibody, V domains shown)
VH: B1 VH with S28T, I48M, D50I, N55D, F60Y, S61N, K105R
VL: B1 VL with V30L, N33Q, G56V, Y58N, A60L, S94F, Q98H
notes: Designer clone from A-D5; IgG1null
On to B4, for which the binding result with human CD47-Fc [9] and in the assay with mouse CD47-Fc [10] was “binds” each time.

B5: A-D5.2 in human IgG1null format (antibody, V domains shown)
VH: B1 VH with I48M, D50I, N55D, N59R, F60Y, S61N, K105R
VL: B1 VL with V30L, G56V, Y58N, A60L, S94F, Q98H
notes: as for B4
With B5, the binding result with human CD47-Fc [9] and with mouse CD47-Fc [10] was “binds” each time.

B6: MH (Maximally Humanized) in human IgG1null format (antibody, V domains shown)
VH: B1 VH with D50I, N55D, N59R, F60Y, K105I
VL: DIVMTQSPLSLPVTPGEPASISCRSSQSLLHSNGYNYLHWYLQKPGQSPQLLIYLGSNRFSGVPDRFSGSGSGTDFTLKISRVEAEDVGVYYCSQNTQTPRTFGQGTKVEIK
notes: Designer clone; IgG1null, kappa; also called designer clone MH
B6: the binding result in the assay with mouse CD47-Fc [11] and in the assay with human CD47-Fc [12] was “binds” throughout.

B7: F-E7 in human IgG1null format (antibody, V domains shown)
VH: B1 VH with I48M, D50I, F60Y, S61N, D104G
VL: B1 VL with Y35N, H39D, A60F, N96A, Q98H
notes: as for B1
Consider B7, for which the “maximum MFI, fold” value in assay [1] and in assay [2] was greater than 10 fold in each case. Besides, the OD450 nm with mouse CD47-Fc [3] is greater than 1.25 OD450 nm; in assay [4], greater than 2 OD450 nm; with human CD47-Fc [5], greater than 2 OD450 nm.

B8: A-D5.18 in human IgG1null format (antibody, V domains shown)
VH: B1 VH with I48M, D50I, N55D, N59R, F60Y, K105R
VL: B1 VL with V30L, G34A, T36N, G56V, Y58N, A60L, S94F, Q98H
notes: Designer clone from A-D5.4; IgG1null
As for B8, the binding result in the assay with human CD47-Fc [13] and with mouse CD47-Fc [14] was “binds” each time.

B9: A-D5.12 in human IgG1null format (antibody, V domains shown)
VH: B1 VH with I48M, D50I, N55D, N59R, F60Y, S61N, K105R
VL: B1 VL with V30L, T36N, G56V, Y58N, A60L, S94F, Q98H
notes: as for B8
Turning to B9, the binding result in the assay with human CD47-Fc [13] and in the assay with mouse CD47-Fc [14] was “binds” in each case.

B10: A-D5.15 in human IgG1null format (antibody, V domains shown)
VH: B1 VH with I48M, D50I, N55D, N59R, F60Y, K105R
VL: B1 VL with V30L, N33G, T36N, G56V, Y58N, A60L, S94F, Q98H
notes: as for B8
In the case of B10, the binding result with human CD47-Fc [13] and in the assay with mouse CD47-Fc [14] was “binds” each time.

B11: D-H3 in human IgG1null format (antibody, V domains shown)
VH: B1 VH with I48M, F60Y, M103P, K105Y
VL: B1 VL with V30L, T36N, Y58N, A60F, T97L, Q98H, T99V
notes: as for B1
On to B11, for which the “maximum MFI, fold” value in assay [1] and in assay [2] was greater than 10 fold in each case. Further, the OD450 nm with mouse CD47-Fc [3] was greater than 1.25 OD450 nm; in assay [4], greater than 2 OD450 nm; with human CD47-Fc [5] it was greater than 2 OD450 nm.

B12: A-D5.17 in human IgG1null format (antibody, V domains shown)
VH: B1 VH with I48M, D50I, N55D, N59R, F60Y, K105R
VL: B1 VL with V30L, N33T, T36N, G56V, Y58N, A60L, S94F, Q98H
notes: as for B8
On to B12, for which the binding result with human CD47-Fc [13] and with mouse CD47-Fc [14] was “binds” throughout.

B13: A-D5.14 in human IgG1null format (antibody, V domains shown)
VH: B1 VH with I48M, D50I, N55D, N59R, F60Y, K105R
VL: B1 VL with V30L, N33S, T36N, G56V, Y58N, A60L, S94F, Q98H
notes: as for B8
Turning to B13, the binding result with human CD47-Fc [13] and in the assay with mouse CD47-Fc [14] was “binds” throughout.

B14: A-D5.13 in human IgG1null format (antibody, V domains shown)
VH: B1 VH with I48M, D50I, N55D, N59R, F60Y, K105R
VL: B1 VL with V30L, T36N, G56V, Y58N, A60L, S94F, Q98H
notes: as for B8
On to B14, for which the binding result with human CD47-Fc [13] and in the assay with mouse CD47-Fc [14] was “binds” throughout.
